Laboratory results: the DeepSol protein solubility set

Assay: soluble on expression in E. coli; label from the status in PepcDB or PDB records

Sequence	soluble on expression in E. coli
MGSDKIHHHHHHAAIPISVTKGPDGIKIHCLNSANNPLLGSPAYKNVRIVELEKVPFFQRINNIRKLEMNDDYLFVQTSEKLYTYTLNGELMAEIGRKGEREDDYSELSTFYIDNKKKQITIIDGVQNKLINYNFWGNYMFTDTISEGAFKWCYQTLLINNNQLLNYHGMSMDNTEPYSLFDLTKKEVIKRYFSYQPITLGNYVYPFSWHPMTRADKDIDVIMPLCDTVYTYSAASSSFQPKYIIEMTQKMAPKNKIRKNTPSYSGDLLKLDQQGYFTGFDGIYETDTKILLQYMYGITLGYFLFDKYTKTGSFYLYSQNDKGKTFPFNVIVHSYKNEFVAFGKGKELRSLTHIKDKKVREKIESLGDNSACLIFYELE	not soluble
MGSDKIHHHHHHAAYGEDNHKKERHPDDRKINVGIRGGFNSSMFLVSDLKIKDVTIDEIQNNYKIGYFGALFMRLNMKRHFIQPEISYNISRCEISFDKLGSQHPDIEPDYASVSSTIHSIDFPLLYGYHVVKQGPYTMSLFAGPKLRYLWNKKNKITFENFDQQGIHEKLYPFNVSAVIGVSVNISRIFFDFRYEQGLHNLSKSVTYDNIDMEGRPEVSNITFRRRDNVLSFSLGVIF	not soluble
MGSDKIHHHHHHADIETCTVPGDVLNRDPIIGNDQITLPLKKGTNISKLAPEFTLTPGATINPESGVVRDFSTPQKYVVTSEDGKWKKEYEVTALFSGIPTSYHFENALPVKDKKGNILYYNFQESDAIGNILNWANANEGFNYTGVQAKPEEYPTSPAPDGVQGNCVKLTTKDTGSLGALLKMYIAAGNLFMGSFTLDIGNVLRATKFGVPFTHIPTSFKGYYKYKAGEVFTVKGEPVSGRKDICDIYAVFYETDDKVKSLDGTNVFTSPNLISIARISNAKETEQWTEFNLPFITLPGKTVDSQKLEDGKYNVAIVFSSSIKGDLFEGAAGSTLYIDEVELSYRDIK	not soluble
MGSDKIHHHHHHADVIVPEQPVPVVAVPAFSWAGFYLGGQVGNFSSKTALSYLGDEKTGKWTPVKKEFVPKLSGFVGGIYAGSNFDINNGFIIGIDTDVMWSGKKNTKIITWPEVPPEVSSEKKVERVSVGTNQDTSAEVTNGALSHTLKQKWFGATRVKVGFVVDRMMPYIAGGVAYTQLQNIFEKEADKTKKAIDISNVIHDEKKTMVGYTLGGGIDFAMTDNVIVRAEYRYSDYGKKKFADEKIEMRYKTNDFRVGVAYKF	not soluble
MGSDKIHHHHHHAGCETEGEDIDMRFETCTVSFVQQELRSSYEVYFNGEKSINRSTSVKKNSTLKLEVYKIGEKQPELSQEITLDNSKDIELLKLVGRDIAISSSLEEYTTFTPIISYFNPNTDLYTVTFNNGELSNKVKNYIAEADLSGTLKIVRNVDGQVLYEQDMTIMPEGQFSLMQLSDTDFLDISDGEEADPESRQYTKIRFFYTADAFPGHDKLKLVVYLMDLDAMQFTAPIATIDLEAGKISEYIQIDNDAFGQGVVNGVYDLIDESGNMIVNNLEHFNTSIPIGTSDNKFMTFRFMDPSHQGGDNVQCNFILSTPWK	not soluble
MGSDKIHHHHHHAKIRAKNADSYPFMYKNYPFLRPWVDSLNQAHALRDTFVLNPEGIRLHAYYIAAPQPTKKTAVIVHGYTDNAIRMFMIGYLYNHDLQYNVLLPDLQHQGESGGPAIQMGWKDRLDVMQWMHIANQIYGDSTQMVVHGISMGGATTMMVSGEAQPYFVKCFVEDCGYTSVWDEFSHELKSSFHLPSFPLMNTTSWLCQKKYGWNFEEASSLNQVKKSHLPMFFIHGDKDTYVPTWMVYPLYEAKSAPKQLWIVPGAAHAVSYKENKEEYTRKVKEFTDRYIH	not soluble
MGSDKIHHHHHHAMSSCGSTKEAASLSSLNGEWNIIEVNGSAIVPAENQELPFIGFDTATGKVYGNSGCNRMMGSIDLNSKPGTIDMSRLGSTRMACPDMTTEQNVLNALGQVKSYKKLGKHNMALCNASNRPVVVLQKKASDVKLSALNGEWKIEEVNGEAIPSGMEKQPFINFDVRKKSIHGNAGCNLINGGFETDKENPRSISFPNVISTMMACPDMEVEGKVMKAINEVKSFDVLSGGGIGFYSADGTLVMVLVKK	not soluble
MGSDKIHHHHHHANAAKKDDAKFKPAADRDGPRWRTGIEGQRIADLGDGRFLNPVLSGDYPDPSVLKDGDDYYMTHSSFDSAPGLLIWHSRDLVNWRPLGPALAKPLGTVFAVDIAKHDGRYFIYIPFMKAPWSTDLPSFANTFVIHAPSMEGPWSDPIDLKVGGLIDPGHVVGEDGHRYLFFNDGKRVRLTADGLATDGPVETAYQAWRYPDDWITEAYSPEGPKLFRRGDYFYLVNAVGGTSGPATGHMIVAARSRSIHGPWENCPHNPIQRTHSRQEMWWSRGHATCVEGPGGQWYMVYHGYENGYHTLGRQTLVEPIEWTPDGWFRATGGDLSEPLRKPRGPAQPHGMAHSDSFHTDRLGTLWNLYGSAPAETARIAIGDGALTLKAKGKGPSDGVVLTQQVGDRSYEVSVELELTDKTSGGLLLFFDDRLFLGMGIDGHRMTTWRGGKASYWPEPAPPARRIFMRITNQEQVVTFYYSLDGKNWTRHGVRSEVTGYNANTVDNLLSLRPALYAAGEGEVLFRNFTYRALA	not soluble
MGSDKIHHHHHHAQDDANCNSNSSISHEAVKAGNFKDAYTPWKAVLENCPTLRFYTFTDGYKILKGLLGQIKDRNSAEYKKYFDELMNTHDLRMKYTQEFLGKGVKVSSEDEALGIKAVDYIAFAPKVDVNQAYDWLKKSVDAAKAESAAATLFYFLQMSHDKLKEDPAHKEQFIQDYLAASEYADDAIAAADKESVKKAFGGIKDNLVALFINSGTADCESLQGIYGPKVETNQTDLNYLKKVISIMKMMKCTDSDAYQQASFYVYKIEPSAEAATGCAYQAYKKGDIDGSVKFFDEAINLETDNAKKAEKAYAAASVLTTAKKLSQARSYAQKAISFNENYGAPYILIANLYAMSPNWSDESALNKCTYFAVIDKLQKAKSVDPSVTEEVNKMISRYSAYTPQAKDLFMLGYKAGDRITIGGWIGESTTIR	not soluble
MGSDKIHHHHHHAQDKPQEEGFVFTTVKENPITSIKNQNRSSTCWSFSSLGFLESELLRTGKGEYDLSEMFVVHHTMVDRAVNYVRYHGDSSFSPGGSFYDIMFCMKNYGLVPQDAMPGIMYGDSLPVHNELDATAGAYVNAIAKGNLKKLTPVWKKGLCAIYDTYLGQCPEKFTYKGKEYTPMTFAQSLGLNPDDYVSLTSYTHHPFYSQFAIEIQDNWRNGLSYNLPLDEFMAVMDNAVKNGYTFAWGSDVSEEGFTRDGIAVVPDAAKGAELTGSDMARWTGMTAADKRKELTSKPLPEMKITQEMRQTAFDNWETTDDHGMIIYGIAKDQNGKEYFMVKNSWGTNNKYKGTWYASKAFVAYKTMNILVHKDALPKDIAKKLGIK	not soluble
MGSDKIHHHHHHAQDNPFKPEWFVSGGINGVTALNGSANNILGGKVSGGVWLNKIIGLRVDAEAGNVWLKGGYNAVTVGAGADILVNLMKNYTDEDRKFRLNAIFGLGYNYYSFGDDYPRLSKTNTMSGNFSLQAAFRLNSHLSIFAEPGIKISTKFYDIENKDDVFAGGMMTVGVIYKF	not soluble
MGSDKIHHHHHHAQQRTEYNRKGDEAMKRLDYSDAKMWYEEGVSQCDAYSIDQLTTIWLSNERMRPSMRSLMNKCLNCLTVKATEDDPDAISKLIIYYSEGIGTPKSEELATYWKEYQEILLKPAEPAAQPIDSAAVSPKKRMEFFAGYSYSIESPYGITVGGMGQRFGWYVRFKTNMSFMNYTDECNNQGQIIKFSNSEGESYELNTGKSSKTNSIAGTAGLIVKCFPWLYASVGLGYGERALLHSFTTHSYENYDSTREVWCRNIDSSYKGVAAEVDLMMKITNSVFISVGCNTVNFKYLDLNAGLGVFF	not soluble
MGSDKIHHHHHHAQTPQDSVRFIGYLPVRHTDPTKWITRYQSEIDRYQTENQMLKDTSCDVLFLGSSSINLWDNIYRDMAPLKILRRSYGGAALRDMLYNYDVIARGYHPRSIVIYVENDLAGTPEDLTVGETFDFFRLLTNRLQRDYPDIPIFILSYKPSLARKEMIPKHEIINALLQEYASKRGGLTYIDVASCLYDNNGKLRKDIFKQDGLHMNQNGYDLWTAILKPKILESIR	not soluble
MGSDKIHHHHHHARLNAFKQLTPGSDVRDWIAAAGQVGGLGAADLNFPDHFAVYDADQMGNFLGEAALTLNGIAMRYYTDPGFKLGAFTHPDAAVRQAALDVTKQGIDTCARMGGKTVTLWMGQDGFDYAFQMDYGLAWDRTVAAIADICAHDPNIDIAIEYKPNEPRAFALMPDIGTTLLACREVGAVNLGVTLDFAHVLYADEMPAHSAALIGRHSRMIGLHLNDGYGKRDDGLMVGSVHAIQTVELLVAMLRMGQTDVIYFDTFPDMGGLNPIEEARTNVAVTDRLMAVAESLMEDPALAQAIDRQDAAASHRIVARALYGS	not soluble
MGSDKIHHHHHHASCNKFDDLNTNPDAATKVTAPMLATKLILNITQQGSAKNFVYHSMLSKQIAWSENASDEQYNLFGRTDFDGYTILTNCQKMVDAANEGDKDSYAALAKFMKAYKLFYKSLEVGDIPYSDALKGEEGVQKPKYDTQKEVMRQVLEDLEEAYTLFSSGSDFDGDPIFGGDTENWKKTVVAFELKVLTHLCKKDTDADLKVKERFARLVSSGSLMTSNADNFQLVYSNKAGQLYPFYYTQNKHSDYLMMSSVIIDNLKKFNDYRMFYYASPAKAQTDKGIKDSEWDAYLSIDPSDSYSNISVLYGKGEFCLANLRYTRVPEGEPLMRLSYAEQNFILAEGAVRGWISEDASTYYKKGIEASMNFIADNTPDKEEYTHGRTITQEYIQEYLAQPVIQLSGDKEKDLEMILLQRYLASFLQHPYDAYYDYRRTGYPVLPINPSTNLNTEKNKIPTRWMYPEAEFSYNPDNANEAVQRQYNGSDDVNKLMWILQ	not soluble
MGSDKIHHHHHHASEPVSVASTPETDEIDQLFDDMQLDGIVSYTAFRQAVTGYQKIEQKSKSIMTLIDFSKPSTEKRLYVLDMKNKKLLYTSVVSHGKNSGGNYATSFSNKNGSYKSSLGFYLTENTYQGRNGYSLVLNGLEKGINDQAKQRAIVMHGAAYANPNITASAGRLGRSLGCPALPQALAKPIIDTIKKGSVLFIYANNKDYLANSTFLSPRQTEYLSWAQPAN	not soluble
MGSDKIHHHHHHATRSGKTPVSVELEIGGLPGDESVDDAIDPDLENPNTSFDLLFIPKEFTFETQAISGDLTAVPIRPSEGNTHTMRHFGMGDVRGALTGWHVTAEIPHMRNEAHSLLGIITFQLTGSYARYDKTLRRFFMTNTMYGLDFSEDPAAPDFPTNPIIIGNGATLMSNAGDRKGQGMWSGRMTDISLAIQTPVSQLFPGAYTGSIIWNLISGPV	not soluble
MGSDKIHHHHHHAVSETISETAWCLDGFERPTGVNPVIKPLPTKFYCPMREDSVAWEESDTFNPAATIYDGKIVVMYRAEDNSAQGIGSRTSRLGYATSTDGIHFERDTKPAFYPAKDNQAENECPGGTEDPRIAMTEDGTYVLLYTQWNRKVPRLAVATSKDLKHWTKFGPAFEKAYNGKFKDEATKSASLVTTLKGDKQVIAKVNGKYFMYWGEKNVYAATSDNLIDWDPLLDENGELLKLFSPRSGYFDSQLTECGPPAILTKDGIVLLYNGKNEPGEKGDTAYPANSYCAGQALFDVNNPTKLIGRLDKPFLQPTDDFEKSGQYPAGTVFVEGLVYYRNKWYLYYGCADSFVAVAVSDKQLNF	not soluble
MGSDKIHHHHHHCDSGSDAVSYGVGTLSLGLSANPSFSTKTRSVNEAEYKKADNYQVTVKDADGASLYNGLYKDMPLSIDLTAGKGYTVKAFYGENVNAGFDKLYVEGSQEFTVSEGEQKNVILYCKPANVKVSVVYTEDFLKYYSDCTVSLSTSHLTAPFEVNMKKDSGKDAYLKANADGEKVSITVGGFRDKEGNEVVMEALVAEKKVAPKTHLTITVDPEVITISTGTASLDVTVDTGTEDKDVNIEIPEEYWPGNASK	not soluble
